Measurements reported in PMC9278863, “The two-domain elevator-type mechanism of zinc-transporting ZIP proteins” (Science Advances, 2022).

Molecular target: the molecule itself
Test: crystal structure; metal-free BbZIP crystallised in lipidic cubic phase (monoolein), 100 mM NaOAc-HOAc pH 4.5, LiSO4, PEG400, 20°C; two molecules in the asymmetric unit; parallel dimers seen in the crystal packing

B1: ZIP from Bordetella bronchiseptica (BbZIP), wild type (natural protein, UniProt A0A0H3LM39 1-309, looked up)
chain: MNQPSSLAADLRGAWHAQAQSHPLITLGLAASAAGVVLLLVAGIVNALTGENRVHVGYAVLGGAAGFAATALGALMALGLRAISARTQDAMLGFAAGMMLAASAFSLILPGLDAAGTIVGPGPAAAAVVALGLGLGVLLMLGLDYFTPHEHERTGHQGPEAARVNRVWLFVLTIILHNLPEGMAIGVSFATGDLRIGLPLTSAIAIQDVPEGLAVALALRAVGLPIGRAVLVAVASGLMEPLGALVGVGISSGFALAYPISMGLAAGAMIFVVSHEVIPETHRNGHETTATVGLMAGFALMMFLDTALG
notes: density seen for residues 21-145, 165-279, 285-309 (chain A) and 18-77, 84-145, 166-219, 225-307 (chain B) of the metal-free structure; also called Zrt/Irt-like protein; WT; source: E. coli C43(DE3), purified (DDM solubilisation, HisTrap IMAC, SEC)
B1: binds.
